# Test results published in the nanobody polyreactivity screen of Harvey et al. (2022).
# Assay: yeast display, Sf9 membrane polyspecificity reagent, FACS + sequencing; frameworks hold sequencing errors
# How it was run: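 Galactose-induced (36–48 hours) yeast carrying a synthetic nanobody display library were exposed to 10% biotinylated, detergent-solubilized Sf9 membrane reagent at 4 °C for 1 hour. FACS followed streptavidin microbead enrichment, using low and high (top ~1%) gates for expression (anti-HA) and reagent binding (streptavidin). Colony PCR, MiSeq 2 × 250 sequencing and CDR-length filtering followed. Labels for polyreactivity reflect the gate of origin.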
row,Sequence,polyreactivity (PSR sort gate)
1,QVQLVESGGGLVQAGGSLRLSCAASGSIFSTYAMGWYRQAPGKERELVAAISRRAGTTYYADSVKGRFTISRDNAKNTVYLQMNSLKPEDTAVYYCAALTESSSYGYWGQGTQVTVSS,low polyreactivity
2,QVQLVESGGALVQAGGSLRLTCAASGSIYYVNAMGWYRQAPGKERELVAAISVRGGRTYYADSVKGRFTISRDNAKNTFYLQMNSLKPEDTEVYYCATRISTVGRYDYWGQGTQVTVSS,high polyreactivity
3,QVQLVESGGGLVQAGGSLRLSCAASGSTFPWYAMGWYRQAPGKEREVVAAISSSGGSTYYADSVKGRFTISRDKAKNTVYLQMNSLKPEDTAVYYCNAQHPGYYWGYDYWGQGTQVTVSS,high polyreactivity
4,QVQLVESGGGLVQAGGSLRLSCAASGSIFRVYAMGWYRQAPGKERELVARISRTGVSTYYADSVKGRFTISRDNAKNTVYLQMNSLKPEDTAVYYCAVLIPYSSRSYRSTWYGYWGQGTQVTVSS,high polyreactivity
5,QVQLVESAGGLVQARVSLRLSSAASGRTIPTYTMGWYRQAPGKERELVAAITRGGSTKYADSVKGRFTISRDNAKNTVYLQMNSLKPEDTAVYYCAAVYRYRHSFAYYRHEMDYWGLGTQVTVSS,low polyreactivity
6,QVQLVESGGGLVQAGGSLRLICAASGRTFPRYTMGWYRQEPGNERELVAAISWRGGRTYYADSVKGRFTISLDNAKNTVYLLMNSLKPEDTAVYYCNAQKRDGSMGYWGQGTQVTVSS,high polyreactivity
7,QVQLVESGGGLVQAGGSLRLSCASSGSTFSYYAMGWYRQATGKERELVAGITTNGGRTFYADSVKGRFTISRDNAKNTVYLQMNSLKPEDTAVYYCNARHGRHRRTRSYYWGQGTQVTVSS,high polyreactivity
8,QVQLVESGGGLVQAGGSLRLSCAASGRIFYLYAMGWYRQAPGKERELVAAISRSGGSTYYADSVKGRFTISRDNAKNTVYLQMNSLKPEDTAVYYCNTVWYFSSRTRLHDYWGQGTQVTVSS,high polyreactivity
9,QVQLVESGGGLVQEGGSLRLSCAASGNTVGINAMGWYRQAPGKERELVASISFTGSSTYYADSVKGRFTISRDNAKNTVYFQMNSLKPEDTAVSYCNRDRITLYEYDYWGQGTQVTVSS,low polyreactivity
10,QVQLVESGGGLDQAGGSLRLSCPASGITFGYNDMGRYRQAPGKERELVAAINRGASTYYADSVKGRFTISRDNAKNTVYLQMYSLKPEDTAVYYCNADHRDTFIWVGLPHMDYWGQGTQVTVSS,low polyreactivity
11,QFHLVETGRGLVQAGGSLRLSCAASGVTYSQYAMGWYRQAPGKERELVARISRRRGSTSYADSVKGRCTISRDNAKNTVYLQMNRMKPEDTAVYYCAKDSPSVYPGRFGNTGGYAYDYWGQGTQVTVSS,high polyreactivity
12,QVQLVEAGGGLVQAGGSLRLSCAASGSTFAGYAMGWYRQAPGKERELVATITYSGGSTYYADSVKGRFTISRDNAKNTVYLQMNSLKPEDTAVYYCAKKASYWWGYEYWGQGTQVTVSS,low polyreactivity
13,QVQLVESGGGLVQAGGSLRLSCAASGSIFWFKAMGWYRQAPGKERELVATIRYSGGSTYYADSVKGRFTISRDNEKNTVYLQRNSMKPEDTAVYYCAADAVGDGHNDYWGLGTQVTVSS,high polyreactivity
14,QVQLVESGGGLVQAGVSLRLSCAASGSTFYRKTMGWYIQAPGKERELVAAISSSGGSTYYADSVNGRFTISRDNAKNTVYLQMNSLKPEDTAVYYCADTYSPFDFYYWRQGTQVTVSS,low polyreactivity
15,QVQLVESGGGLVQAGGSLRLSCAASGRIFTWYAMGWYRQAPGKERELVAAISWSGGRTYYADSVKGRFTISRDNAKNTVYLQMNSLKPEDTAVYYCNAVPSVRWRYDYWGQGTQVTVSS,high polyreactivity
16,QVQLVESGGGLVQAGGSLRLSCVASGRIIPCNAMGWYRQAPGKERELVAAISYGGGSTYYADSVKGRFTISRDNAKNTVYLQMNSLKPADTAVYYCAAASSGEYGYWGQGTQVTVSS,low polyreactivity
17,QVQLVESGGGLVQAGGSLRLSCAASGFTFRGYAMGWYRQAPGKERELVASISYRGDSTYYADSVKGRFTISRDNAKNTVYLQMNSLKPADTAGYYCNKLLASYYLPGFDYWGQGTQVTVSS,low polyreactivity
18,QVKLVESGGGLVQAGGSLRLSCAASGFTFTWYVMGWYRQAPGKESELVAAISRSGGSKYYADSVKGRFTISRDNAKNTVYLQMNRLKPEDTAVYYCADVGTSSYDYWGQGTQVTVSS,high polyreactivity
19,QVQLVESGGGLVQAGGSLRLSCAASGFTFYGYAKGWYRQAPGKERELVAAISKRGGSTYYADSVKGRFTISRDNAKNPVYLQMNSLKPEDTAVYYCNADKHYQYRYRQYGYWGQGTQVTVSS,high polyreactivity
20,QVHLVESGGGVLQAGVSLRLSCAASGFTFYGNAMGWYRQAAGKERELVAANSGRGGSTYYADSVKGRFTISRDNEKYTVYLHMNSLKPEDTAVYYCDIYVSWPLYYYWGQGTQVTVSS,low polyreactivity
21,QVQLVESGGGLVQAGGSLRLSCAASGSTFNDYVMGWYRKAPGKERELVAAISRSGGSTYYADSVKGRFTISRDNAKNTVYIQMNSLKPEDTAFYYCNSDVGYWWGYYGYDYWGQGTQVTVSS,high polyreactivity

row,Sequence,polyreactivity (PSR sort gate)
1,QDQLVESGGGLVQAGGSLRLSCAASGRIFYLNAMGWYRQAPGKERELVAAINTSGDSTYYADSVKGRFTISRDIAKNTVYLQMNSLKQEDTAVYYCAAYVIGPDQFIYDYWGQGTQVTVSS,low polyreactivity
2,QVQLVESGGGLVQAGGSLRLSCAASGFIFLYNAMGWYRPAPGKERQLVAAITSSGATTYYADSVKGRFTISRDNAKNTDYLQMNSLKPEDTAVYYCAARYTGRNGGSTTPEYDYWGQGTQVTVSS,low polyreactivity
3,QVQLVESGGGLVQAGGSLRLSCAASGRTFGRNTMGWYRQAPGKERELVASITRSSGSTYYADSVKGRFTISRDNAKNTVYLQMNSLKPEDTAVSYCNARATSGGDYWGQGTQVTVSS,high polyreactivity
4,QVQLVESGGGLVQAGGSLRLSCAASGGTFYKYAMGWYRQAPGKERELVAAISRSGGSTYYADSVKGRFTISRDNAKNTVYLQMNSLKPEDTAVYYCNAYGSYWDFDYWGQGTQVTVSS,high polyreactivity
5,QVQLVESGGGLVQAGGSLRLSCAASGFIFDAYAMGWYRQAPGKERELVAGISIGGRTNYADSVKGRFTISRDNAKNTVYLQMNSLKPEDTAVYYCAARNYRYYYGSYYRGPITNYEYWGQGTQVTVSS,low polyreactivity
6,QVQLVESGGGLVQAGGSLRLSCAASGSIFRPYAMGWYRQAPGKERELVAAISYRGGSTYYADSVKGRFTISRDYAKNTVYLLMNRLKPEDTAVYYCAADSREEGDYWGQGTQVTVSS,low polyreactivity
7,QVQLVESGGGLVQAGGSLRLSCAASGSTSPVYAMGWYRQAPGKERELVAAISSSGSRTYYADSVKGRFTISRDNAKNTVYLQMNCLKPEDSAVYYCAADWWAWRAYYYWGQGTQVTVSS,high polyreactivity
8,QVQLVQSGGGLVQAGGSLRLSSAASGRIFATNAMGWYRQAPGKERELVAAITTSGGSTYYADSVKGRFTISRDNAKNTVYLHLNSLKPEDTAVYYCAARRGPNSYRWRMGYWGHGTQVTVSS,high polyreactivity
9,QVQLVESGGGLVQAGGSLRLSSAASGSIFLLYAKGWDRQAPGKERELVAAISRSGDSTHYADSVKGRFTISRDNAKNTVYLQMNSLQPEDTAVYYCAADGYDPYGGLYAYWGHGTQVTVSS,low polyreactivity
10,QVQLVESGGGLVQAGGSLRLSCAASGGIFYYYAMGWYRQAPGKERELVAAISWSGGSTYYADSVKGRFTISRDNAKNTVYLQMNSLKPEDPAVYYCAPYSDFHYAQLEYDYWGQGTQVTVSS,low polyreactivity
11,QVQLVESGGGLVQAGGTLRLSCSASGRTFPGYAMGWYRQAPGKERELVAVISLSGGRTNYADSVKGRFTISRDNAKNTVFLLMNSLKPEDTAVYYCAGRYHGHSNDYWGQGTQVTVSS,low polyreactivity
12,QVQLVESGGGLVQAGGSLRLSCAASGRIFAVYAMGWYRQAPGKERELVAAISWSGGRTYYADSVKGRFTISRDNAKNTVYLQMNSLKPEDTAVYYCNRTPTGSYLYGMDYWGQGTQVTVSS,high polyreactivity
13,QVQLVESGGGLVQAGGSLRISCAASGSTFDNYAMGSYRHAPGKERELVAVITQSGGITFYADSVKGRFTISRDNSKNTVYLQMNSLKPEDSAVYYCNVELDRSWYYYWGQGTQVTVSS,low polyreactivity
14,QVQLVESGGGLVQAGGSLRLSCAASGSTFGYYAMGWYRQAPGKERELVASITSDGSTNYADSVKGRFTISRDNAKNTVYLQMNSLKPEDSSVYYCAAYVWRYWHEYDYWGQGTQVTVSS,low polyreactivity
15,QVQLVESGGGVVQAGGSLRLSCAASGIIFDYYAMGLYRQAPGKERELVAAITSGGSTYYADSVKGRFTISRDNAKNSVYFQMKSLKAEDTAVYFCAAVYPRVRYDYWGQGTQVNVSS,high polyreactivity
16,QVQLVESGGCLVQAGGSLRLSCAASGRIFDHYAMGWYRQAPGKERELVAAITRSGGITYYADSVKGRFTISRDNAKNTVYLQMNSLKPDDTAVFYCAAYLKGNYYLGIARYVLYYWGQGTQVTVSS,low polyreactivity
17,QVQLVESGGGLVQAGGSLRLSCAASGSIVGRYAMGWYSQAPGQERELVAAISTGDSTYYADSVKGRFTISRDNAKNTVYLQMNSLKPEDTAVYYCNRRGRRVYDYWGQGTQVTVSS,high polyreactivity
18,QVQLVESGGGLVQAGGSLRLSCAASGFTFAYYAMGWYRQAPGKERELVASISYNGGITNYADSVKGRFTISRDNAKNTVYLQMNSLKPEDTSVYYCNAVPHYYWRFDYWGQGTQVTVSS,low polyreactivity
19,QVQLEESGAGLVQAGGSLRLCCAASGFTIGYNVMGWYRQAPGKERELVATISWNGARTYYADSVKGRFTISRDNAKNTVYLQMNSLKPEDTAVYYCAARRYYRGEYDYWGQGTKVTVSS,low polyreactivity
20,QVQLVESGGGLVQAGGSLRLSCAASGLIFYSYAMGWYRQAPGKERELVAAINGGGGSTYYADSVKGRFTISRDNAKNTVYLQMNSLKPEDTAVYYCAAVRSIVDWGLMYYWGQGTQVTVSS,high polyreactivity
